Columns and labels:
SntA = tested on: T1, SntA; assay: HPLC at […] nm of […]'-AMP formed, initial rates, Michaelis-Menten fit; assay type: biochemical, Streptococcus suis; conditions: 50 mM Tris-HCl pH 7.5, 2 mM MnCl2, 0.1 mg/mL BSA, 37 °C; read-out: K m ^1 /
T1 construct: cell wall-attached protein of 813 residues; preparation from earlier work [10]

[1] = tested on: Nc1ncnc2c1ncn2[C@@H]1O[C@H](CO)[C@@H](OP(=O)(O)O)[C@H]1O; assay: purified protein; conditions: 50 mM Tris-HCl pH 7.5, 2 mM MnCl2, 0.1 mg/mL BSA, 37 °C
Excerpt: (§1) colorimetric phosphate release, initial rates, Michaelis-Menten fit on S. enterica CpdB

[2] = tested on: Nc1nc2c(ncn2[C@@H]2O[C@@H]3COP(=O)(O)O[C@H]4[C@@H](O)[C@H](n5cnc6c(N)ncnc65)O[C@@H]4COP(=O)(O)O[C@H]3[C@H]2O)c(=O)[nH]1; assay: purified protein; conditions: 50 mM Tris-HCl pH 7.5, 2 mM MnCl2, 0.1 mg/mL BSA, 37 °C
[3] = tested on: Nc1ncnc2c1ncn2[C@@H]1O[C@H](COP(=O)(O)OP(=O)(O)OP(=O)(O)OC[C@H]2O[C@@H](n3cnc4c(N)ncnc43)[C@H](O)[C@@H]2O)[C@@H](O)[C@H]1O; assay: purified protein; conditions: 50 mM Tris-HCl pH 7.5, 2 mM MnCl2, 0.1 mg/mL BSA, 37 °C, excess alkaline phosphatase
Excerpt: (§2) coupled alkaline phosphatase, colorimetric phosphate release, initial rates, Michaelis-Menten fit on S. enterica CpdB

[4] = tested on: O=[N+]([O-])c1ccc(OP(=O)(O)Oc2ccc([N+](=O)[O-])cc2)cc1; assay: purified protein; conditions: 50 mM Tris-HCl pH 7.5, 2 mM MnCl2, 0.1 mg/mL BSA, 37 °C, excess alkaline phosphatase
Excerpt: as §2

[5] = tested on: Nc1nc2c(ncn2[C@@H]2O[C@H](CO)[C@@H](OP(=O)(O)O)[C@H]2O)c(=O)[nH]1; assay: purified protein; conditions: 50 mM Tris-HCl pH 7.5, 2 mM MnCl2, 0.1 mg/mL BSA, 37 °C
Excerpt: as §1

[6] = tested on: Nc1nc2c(ncn2[C@@H]2O[C@@H]3CO[P@](=O)(O)O[C@H]4[C@@H](O)[C@H](n5cnc6c(=O)[nH]c(N)nc65)O[C@@H]4CO[P@](=O)(O)O[C@H]3[C@H]2O)c(=O)[nH]1; assay: purified protein; conditions: 50 mM Tris-HCl pH 7.5, 2 mM MnCl2, 0.1 mg/mL BSA, 37 °C
[7] = tested on: [H][C@@]1(O)[C@]2([H])OP(=O)(O)OC[C@@]3([H])O[C@@]([H])(n4cnc5c(N)ncnc54)[C@]([H])(O)[C@]3([H])OP(=O)(O)OC[C@@]2([H])O[C@@]1([H])n1cnc2c(N)ncnc21; assay: purified protein; conditions: 50 mM Tris-HCl pH 7.5, 2 mM MnCl2, 0.1 mg/mL BSA, 37 °C
[8] = tested on: Nc1ncnc2c1ncn2[C@@H]1O[C@H](CO)[C@H]2OP(=O)(O)O[C@H]21; assay: purified protein; conditions: 50 mM Tris-HCl pH 7.5, 2 mM MnCl2, 0.1 mg/mL BSA, 37 °C, excess alkaline phosphatase
Excerpt: as §2

[9] = tested on: O=c1ccn([C@@H]2O[C@H](CO)[C@H]3OP(=O)(O)O[C@H]32)c(=O)[nH]1; assay: purified protein; conditions: 50 mM Tris-HCl pH 7.5, 2 mM MnCl2, 0.1 mg/mL BSA, 37 °C, excess alkaline phosphatase
Excerpt: as §2

[10] = tested on: Nc1ncnc2c1ncn2[C@@H]1O[C@@H]2COP(=O)(O)O[C@H]3[C@@H](O)[C@H](n4cnc5c(N)ncnc54)O[C@@H]3COP(=O)(O)O[C@H]3[C@@H](O)[C@H](n4cnc5c(N)ncnc54)O[C@@H]3COP(=O)(O)O[C@H]3[C@@H](O)[C@H](n4cnc5c(N)ncnc54)O[C@@H]3COP(=O)(O)O[C@H]3[C@@H](O)[C@H](n4cnc5c(N)ncnc54)O[C@@H]3COP(=O)(O)O[C@H]3[C@@H](O)[C@H](n4cnc5c(N)ncnc54)O[C@@H]3COP(=O)(O)O[C@H]2[C@H]1O; assay: purified protein; conditions: 50 mM Tris-HCl pH 7.5, 2 mM MnCl2, 0.1 mg/mL BSA, 37 °C
[11] = tested on: O=c1ccn([C@@H]2O[C@H](CO)[C@@H](OP(=O)(O)O)[C@H]2O)c(=O)[nH]1; assay: purified protein; conditions: 50 mM Tris-HCl pH 7.5, 2 mM MnCl2, 0.1 mg/mL BSA, 37 °C
Excerpt: as §1

[12] = tested on: Nc1ncnc2c1ncn2[C@@H]1O[C@H](COP(=O)(O)O[C@H]2[C@@H](O)[C@H](n3cnc4c(N)ncnc43)O[C@@H]2COP(=O)(O)O)[C@@H](O)[C@H]1O; assay: purified protein; conditions: 50 mM Tris-HCl pH 7.5, 2 mM MnCl2, 0.1 mg/mL BSA, 37 °C
[13] = tested on: Nc1ncnc2c1ncn2[C@@H]1O[C@@H]2COP(=O)(O)O[C@H]3[C@@H](O)[C@H](n4cnc5c(N)ncnc54)O[C@@H]3COP(=O)(O)O[C@H]3[C@@H](O)[C@H](n4cnc5c(N)ncnc54)O[C@@H]3COP(=O)(O)O[C@H]3[C@@H](O)[C@H](n4cnc5c(N)ncnc54)O[C@@H]3COP(=O)(O)O[C@H]2[C@H]1O; assay: purified protein; conditions: 50 mM Tris-HCl pH 7.5, 2 mM MnCl2, 0.1 mg/mL BSA, 37 °C
[14] = tested on: Nc1ccn([C@@H]2O[C@H](CO)[C@H]3OP(=O)(O)O[C@H]32)c(=O)n1; assay: purified protein; conditions: 50 mM Tris-HCl pH 7.5, 2 mM MnCl2, 0.1 mg/mL BSA, 37 °C, excess alkaline phosphatase
Excerpt: as §2

[15] = tested on: Nc1ncnc2c1ncn2[C@@H]1O[C@H](COP(=O)(O)OP(=O)(O)OP(=O)(O)OP(=O)(O)OC[C@H]2O[C@@H](n3cnc4c(N)ncnc43)[C@H](O)[C@@H]2O)[C@@H](O)[C@H]1O; assay: purified protein; conditions: 50 mM Tris-HCl pH 7.5, 2 mM MnCl2, 0.1 mg/mL BSA, 37 °C, excess alkaline phosphatase
Excerpt: as §2

[16] = tested on: Nc1nc2c(ncn2[C@@H]2O[C@H](CO)[C@H]3OP(=O)(O)O[C@H]32)c(=O)[nH]1; assay: purified protein; conditions: 50 mM Tris-HCl pH 7.5, 2 mM MnCl2, 0.1 mg/mL BSA, 37 °C, excess alkaline phosphatase
Excerpt: as §2

[17] = tested on: Nc1ncnc2c1ncn2[C@@H]1O[C@H](COP(=O)(O)OP(=O)(O)O)[C@@H](O)[C@H]1O; assay: purified protein; conditions: 50 mM Tris-HCl pH 7.5, 2 mM MnCl2, 0.1 mg/mL BSA, 37 °C
Excerpt: as §1

Nc1ncnc2c1ncn2[C@@H]1O[C@@H]2COP(=O)(O)O[C@H]3[C@@H](O)[C@H](n4cnc5c(N)ncnc54)O[C@@H]3COP(=O)(O)O[C@H]3[C@@H](O)[C@H](n4cnc5c(N)ncnc54)O[C@@H]3COP(=O)(O)O[C@H]3[C@@H](O)[C@H](n4cnc5c(N)ncnc54)O[C@@H]3COP(=O)(O)O[C@H]3[C@@H](O)[C@H](n4cnc5c(N)ncnc54)O[C@@H]3COP(=O)(O)O[C@H]3[C@@H](O)[C@H](n4cnc5c(N)ncnc54)O[C@@H]3COP(=O)(O)O[C@H]2[C@H]1O [c-hexa-AMP]
Km (SntA): 2.63 ± 0.88 µM

S. enterica CpdB (Salmonella enterica subsp. enterica serovar Typhimurium str. LT2)
Km [1]: 6.53 ± 1.16 µM | kcat [1]: 172 ± 41.3 s⁻¹ | kcat/Km [1]: 2.76e+07 M⁻¹ s⁻¹ | Km [2]: 2.13 ± 0.32 µM | kcat [2]: 0.3 ± 0.03 s⁻¹ | kcat/Km [2]: 197000 M⁻¹ s⁻¹ | Km [3]: 69.09 ± 19.31 µM | kcat [3]: 2.1 ± 0.17 s⁻¹ | kcat/Km [3]: 31600 M⁻¹ s⁻¹ | Km [4]: 33.74 ± 4.77 µM | kcat [4]: 250 ± 9.82 s⁻¹ | kcat/Km [4]: 7.53e+06 M⁻¹ s⁻¹ | Km [5]: 4.66 ± 1.34 µM | kcat [5]: 219 ± 48.7 s⁻¹ | kcat/Km [5]: 5.23e+07 M⁻¹ s⁻¹ | Km [6]: 4.12 ± 0.98 µM | kcat [6]: 0.09 ± 0.01 s⁻¹ | kcat/Km [6]: 22400 M⁻¹ s⁻¹ | Km [7]: 8.89 ± 2.31 µM | kcat [7]: 0.31 ± 0.06 s⁻¹ | kcat/Km [7]: 35500 M⁻¹ s⁻¹ | Km [8]: 14.41 ± 3.68 µM | kcat [8]: 209 ± 16.9 s⁻¹ | kcat/Km [8]: 1.53e+07 M⁻¹ s⁻¹ | Km [9]: 22.65 ± 2.56 µM | kcat [9]: 324 ± 21.8 s⁻¹ | kcat/Km [9]: 1.44e+07 M⁻¹ s⁻¹ | Km [10]: 24.24 ± 7.60 µM | kcat [10]: 0.006 ± 0.001 s⁻¹ | kcat/Km [10]: 238 M⁻¹ s⁻¹ | Km [11]: 4.54 ± 0.53 µM | kcat [11]: 155 ± 13.3 s⁻¹ | kcat/Km [11]: 3.42e+07 M⁻¹ s⁻¹ | Km [12]: 0.22 ± 0.12 µM | kcat [12]: 2.85 ± 1.04 s⁻¹ | kcat/Km [12]: 1.39e+07 M⁻¹ s⁻¹ | Km [13]: 18.44 ± 4.95 µM | kcat [13]: 0.042 ± 0.001 s⁻¹ | kcat/Km [13]: 2370 M⁻¹ s⁻¹ | Km [14]: 4.52 ± 0.69 µM | kcat [14]: 146 ± 9.39 s⁻¹ | kcat/Km [14]: 3.32e+07 M⁻¹ s⁻¹ | Km [15]: 49.21 ± 12.46 µM | kcat [15]: 2.64 ± 0.24 s⁻¹ | kcat/Km [15]: 55000 M⁻¹ s⁻¹ | Km [16]: 7.52 ± 1.46 µM | kcat [16]: 120 ± 4.74 s⁻¹ | kcat/Km [16]: 1.63e+07 M⁻¹ s⁻¹ | Km [17]: 28.09 ± 1.82 µM | kcat [17]: 2.83 ± 0.19 s⁻¹ | kcat/Km [17]: 101000 M⁻¹ s⁻¹

Nc1ncnc2c1ncn2[C@@H]1O[C@@H]2COP(=O)(O)O[C@H]3[C@@H](O)[C@H](n4cnc5c(N)ncnc54)O[C@@H]3COP(=O)(O)O[C@H]3[C@@H](O)[C@H](n4cnc5c(N)ncnc54)O[C@@H]3COP(=O)(O)O[C@H]3[C@@H](O)[C@H](n4cnc5c(N)ncnc54)O[C@@H]3COP(=O)(O)O[C@H]2[C@H]1O [c-tetra-AMP]
Km (SntA): 262 ± 62.1 µM
